Assay results as given in the supplement of paper PMC12042874.
± gives the uncertainty stated by the source.

Test: amyloid nucleation score (Sup35N fusion, yeast selection) (log enrichment); library NNK1; higher = more nucleation; inactive = no reads after selection
Method in brief: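 The nucleation score is a DiMSum log enrichment of output over input reads, centred on the mode score of non-aggregating sequences. Sequences under 100 input reads were excluded, and reads came from Illumina sequencing of plasmid inserts. Psi-negative yeast expressing Sup35N fused to peptides of 20 random codons were induced with 100 μM copper sulfate for 24 hours and grown 7 days at 30°C on medium lacking adenine and uracil. Random libraries had three technical output replicates.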

| Substance | amyloid nucleation score |
| --- | --- |
| EACETLRLYELCLFKWERFR | 0.47 ± 0.58 |
| NPFYKT | 0.268 ± 0.37 |
| GTTSVSAINGR | -0.545 ± 0.8 |
| CFDNSFTFPPDG | 0.066 ± 0.3 |
| CNMSQC | inactive |
| YFSHTSWLYFSTPFIVVVRV | 0.25 ± 0.97 |
| FRMNRKVRC | 0.082 ± 0.29 |
| YMASEG | inactive |
| VIVHIWRET | 3.92 ± 0.11 |
| HGYSNNVARYWA | 0.372 ± 1.4 |
| CRLDGT | -0.36 ± 0.72 |
| DRPTRLSVIFGRPP | inactive |
| NKCIAKDGDMES | -0.015 ± 0.23 |
| NTLSISDSYVEYETWEVIPV | 1.62 ± 0.5 |
| NLTFGYVGHK | 3.91 ± 0.087 |
| SGLIKVGISLRLHYGLYLRY | 0.684 ± 0.88 |
| FTSVITLMFNYNTFWKKSSY | 1.12 ± 0.27 |
| VPYRFPRMVKYGSMDFTSLE | 4.03 ± 0.094 |
| NICMQTRVIRAS | 0.811 ± 0.5 |
| SRATSYKFSTGRCCWTGTVK | 0.072 ± 0.91 |
| RILSDDDVARQNGNDDNLYP | 3.22 ± 0.092 |
| CDGNHSRSLRLIDLGPGF | -0.558 ± 1.1 |
| IFGTHFGTCFSGHAEEDTGE | 0.724 ± 0.83 |
| LFTRIFSLSMYVPNCFRYAY | 1.02 ± 0.39 |
| MNLSVSVPVHTRLDMMFM | 5.616 ± 0.049 |

| Substance | amyloid nucleation score |
| --- | --- |
| FMRSATCKVWNL | -0.079 ± 0.51 |
| SYLNPTVMILGFYP | 0.825 ± 0.41 |
| VADGYIHARSCRYFKNIIVR | -1 ± 1.2 |
| QNVACSMH | 0.093 ± 0.57 |
| SLNKRWCLRTQFGVAMVRTP | 0.416 ± 0.99 |
| ISLVICGFYGLAEMVDNSQN | 7.51 ± 0.077 |
| GYTKILMRHSNFCMTK | 0.428 ± 0.19 |
| STRHPTKNR | 0.823 ± 0.21 |
| LRCKMYSMWKTSYFTVMLGG | -0.261 ± 0.44 |
| PFQRGIYHWLYILGLVVELP | inactive |
| FLLIVVCWDLRLSSFHKLYF | 0.657 ± 0.73 |
| KMVLF | 0.927 ± 0.49 |
| IQNISLGVVGVMWNPHTCVV | -0.708 ± 0.66 |
| YEKVSDQGNLGLASIYLAGK | -0.159 ± 0.22 |
| TCVCQFIWG | -0.086 ± 0.79 |
| LRLMLCFMFYAWTALCKPRD | 0.31 ± 0.23 |
| NSFVYQWFGYVSFKLFRCTV | 0.316 ± 0.26 |
| KLLNRTMRTMVSVSRVM | 0.738 ± 0.72 |
| AYAGLRCVGSDVIAGKTVAN | 0.684 ± 1.2 |
| NHCFLVRWNISKSSRDVSWC | 0.142 ± 0.47 |
| VSCGDELVGDRI | 0.171 ± 0.36 |
| AHYRV | 0.014 ± 0.48 |
| YSFALSVG | 0.874 ± 0.43 |
| VGMYGSVSFMS | -1.02 ± 0.89 |
| TKSTYSSTVTKRTSASCVTL | 0.215 ± 1.1 |

| Substance | amyloid nucleation score |
| --- | --- |
| AAMCLLIWRACRISVDMHMC | -0.205 ± 0.27 |
| RYKWMYFCFHLIMVGNRMSA | inactive |
| RDRCT | 0.49 ± 0.36 |
| KLKGG | -0.27 ± 0.3 |
| TASNDYLDIDPSMDQSRWCG | 0.518 ± 0.27 |
| VGLDLALSYHFAQG | 4.8 ± 0.087 |
| VSTNKRVVGMRRFGTYTRYV | -0.309 ± 0.6 |
| DSEDVVLQCEWWTRLARIEY | -0.333 ± 0.54 |
| YRMGLGS | -0.455 ± 0.96 |
| QLNFYIR | 8.212 ± 0.061 |
| EVCWNSCMVADSVSVISNPA | -0.231 ± 0.27 |
| TYWMHCEWFSV | -1.4 ± 2.7 |
| STMFYLIFCQCTSIYANLYQ | 0.063 ± 0.41 |
| CDNDSMWGYCLTTRMGRFTA | -0.379 ± 0.59 |
| VQIDK | 0.514 ± 0.33 |
| TRYGVYQYVVDSLINCHLLE | -0.186 ± 0.52 |
| KWDLRPYFFLMVLEQGCSMW | -0.506 ± 1 |
| GLSIQ | 0.288 ± 0.44 |
| CPVMA | -0.094 ± 0.27 |
| WMLHMASGGTLCEEASVLVV | -0.148 ± 0.55 |
| GRSLAFTSYCLMKGLTSVSV | -0.383 ± 0.29 |
| GHSDFYTTPLKLCRGE | 0.634 ± 0.72 |
| WELMLTTH | 0.453 ± 0.33 |
| CWRLSYGLGVTFNKMLWPWK | 0.43 ± 0.56 |
| AIEPHDGFWGVWSTLGVILI | 1.32 ± 0.93 |

| Substance | amyloid nucleation score |
| --- | --- |
| RYWSRQRLTDVYVFRLDMSR | -2.07 ± 2.4 |
| LNRHYFCVGIPYGPYSQRYL | 0.51 ± 0.75 |
| KAMCYKMSFCNYDSRVYTED | 4.53 ± 0.06 |
| NKRVHWLSGRLWIWYHWWVI | -1.5 ± 1.7 |
| RPKSEISSNFLVDMGFYREM | 0.808 ± 0.88 |
| FTNASDYYELVLHCRGAEKE | 0.523 ± 0.3 |
| RGNANIVEDSLFVVIGGRKV | 4.25 ± 0.074 |
| SDNYVKAYVRVRRVMTKGGS | -0.579 ± 0.58 |
| NDWIFD | inactive |
| NMTFSMPSNINCPFLGLR | 0.29 ± 0.47 |
| ANQRSAGYPSGYKCTYYNRS | 0.838 ± 0.41 |
| EEGDAAGVVILNMQRSYG | -0.427 ± 0.41 |
| SRCLMRMTAPQVQEGACAVC | -0.268 ± 0.38 |
| FPYILMKRAKQYALGPRHLL | -0.435 ± 0.32 |
| HVNSRRVLSHFVFDCARIGT | 0.592 ± 0.69 |
| EFIIAWVWRLHNWVSGFRHS | 0.343 ± 0.35 |
| LKYMYHYVSMKVFVLGISMR | 0.005 ± 1.7 |
| MNTSVAWMVR | -0.149 ± 0.32 |
| QLAAWSGFN | 0.522 ± 0.28 |
| ILFRVVSRVGISRYGWKRVL | -0.241 ± 0.83 |
| GCDTQLQMGLFMSYIMNTSV | -0.621 ± 1.1 |
| TCLWSYSNAFENPR | 1.85 ± 0.31 |
| IVNVAGNV | 0.803 ± 0.45 |
| NAVITESLIDKAPVGSNWDT | -0.498 ± 0.59 |
| FHLVRGCIFITCKYVGRGIV | 1.32 ± 0.57 |

| Substance | amyloid nucleation score |
| --- | --- |
| YRRWKPIGVMSSSWLICVES | 0.603 ± 0.43 |
| FLVQNRRISEVIELWALLS | -1.19 ± 2.7 |
| EILETGRCLSFLYRIVDGCI | inactive |
| TLTSPWDSYKRFCKNSPLFN | 0.353 ± 1.4 |
| DSYDTTSNRAPVMLKVNYSM | -0.692 ± 0.64 |
| FGRSVLDRVKVMHVRVVVSV | -0.372 ± 0.63 |
| IIVGVVNTRDYLYCRNFVYI | 2.79 ± 0.1 |
| NCFSMRQRECCRYRMCVNGI | 1.01 ± 0.55 |
| VWWHYLSLYAIWYSYVRLYV | -0.097 ± 0.52 |
| TTEYRMLGYSVEHLQDCSDR | -0.527 ± 0.54 |
| GRRVFGRYVQINNGPISRFF | 0.266 ± 1.1 |
| MNFCYLCTTWWSYYFQ | -0.38 ± 0.32 |
| CSVRAVGILRWAFFGEHPLN | -0.422 ± 0.41 |
| HMSGFWM | -0.856 ± 1.7 |
| FDKSRVDRLSDKGRCCCVL | 1.36 ± 0.69 |
| GYRHRYQQTKGIVTHSMYFD | 1.27 ± 0.9 |
| SSQRGGNPGIMFNWEIVLRG | 2.59 ± 0.14 |
| FGSSMLDFNLDFDKWCE | 3.66 ± 0.076 |
| YSAIRTKFFAA | 0.616 ± 1.1 |
| ESLSCKFLCVYCCL | inactive |
| KGAVFVPETAPLI | 0.93 ± 1 |
| EHLRFKKANNVLYVNESSSV | -1.59 ± 1.3 |
| YVCIGFYSSPVLGIDFLGNK | 3.53 ± 0.11 |
| DLPLGQRYSCAQVGGWSYYE | 0.556 ± 0.45 |
| YFLSHRCTGGLPIS | -0.028 ± 0.9 |

| Substance | amyloid nucleation score |
| --- | --- |
| GLMVHRDFGIECLQHETHFG | 0.074 ± 0.26 |
| EVRSQSNEYHLRNWCVYK | 1.31 ± 0.23 |
| NTQTFEAFSKSFMDLIVRRF | -0.735 ± 1.2 |
| ICFFGCQGGGPRLRQDRCRT | -0.53 ± 0.63 |
| YFDLWALSVLCCFFGVNSPF | 5.69 ± 0.087 |
| TNVMLPNGVGFLAPAVHCES | 1.04 ± 0.51 |
| TWSCMFLYYFTLWLCTS | inactive |
| ECCWLRVTRLGLWDDVVHSE | -0.163 ± 0.33 |
| YFSVHF | 2.29 ± 0.15 |
| YNWVGIDRMGFYTFSVGLVC | -0.375 ± 0.38 |
| ATCPLYEVLSCYARVKFANT | -0.357 ± 0.33 |
| HLSYI | -0.455 ± 1.7 |
| IFSLCSVLSSNIEECPS | -0.257 ± 0.8 |
| LWWFEYRL | -0.016 ± 0.32 |
| ELLYGWGIP | -0.723 ± 0.76 |
| NFGIRGRRTAGLEVRCLRRC | -1.22 ± 2.7 |
| TLISSGNVHYMWKVTFLNNR | 4.8 ± 0.063 |
| LRFIRRYIESHITFVRKLLK | inactive |
| VVIGILSEYATKTNWFCSIY | 1.08 ± 0.2 |
| ITFTHDNISYKIRTPFAKSL | 1.55 ± 0.26 |
| HKRAEKHNHFITWSIQSLRA | 0.653 ± 0.33 |
| SIFADGLVVGLGPSLYSVFF | 0.175 ± 0.54 |
| SLLRARIKVVPV | -1.46 ± 1.6 |
| KSPRVSVGTASVSWRKKFTW | 0.2 ± 0.74 |
| CFRHRYRQLGIMWWGLRLQL | -1.44 ± 2.4 |

| Substance | amyloid nucleation score |
| --- | --- |
| VVSDRRFYLLKFKSGVLSLV | -0.043 ± 0.31 |
| IGGFASLGYGYIRDVIRVTS | 0.493 ± 0.45 |
| CTVRFIYRKLN | -0.325 ± 0.33 |
| CSILF | 0.011 ± 0.75 |
| YSRGGFGHWFQHSL | -0.482 ± 1.7 |
| SPVESQNSNNRLTIMDLIMR | 0.574 ± 0.97 |
| FFRTLTWR | 1.11 ± 0.55 |
| FLHFMVY | 0.027 ± 0.64 |
| MLVRG | -0.351 ± 0.49 |
| CPPSYLMT | -0.464 ± 0.45 |
| WFHSQVTQNYSVWLLSTNYS | -0.091 ± 0.56 |
| LAVFSNVLLYVEDMSALIRG | 0.129 ± 0.2 |
| LLLTHNLVNADDSVDSMQHK | 0.086 ± 0.24 |
| GLALHGIEWVCCVQDQSFDR | 7.08 ± 0.071 |
| GAVICICCIIIGKYC | 3.74 ± 0.082 |
| VSRPQMSSTTEHSTTDYFGC | inactive |
| CSRNDTVHATINMWDNSATA | -0.07 ± 0.41 |
| PRVIELARLVRLRKTKVYML | -0.013 ± 0.24 |
| SKDKGSTLGTSNLGRDGSWK | 0.5 ± 0.45 |
| MSHWTMGREWITHLFSGHWG | 0.945 ± 1.1 |
| ISFCDGRSCIDLIAVRCFRG | -0.909 ± 0.26 |
| RMFEVARSSKRSLFHSILET | 0.109 ± 0.26 |
| STILPIGWNFDCCITISSCV | 0.372 ± 0.28 |
